What is called Kd is the concentration at which binding is half-saturated. One may read the koff as a measure of how fast the partners let go of each other. In general, kon refers to the second-order rate constant of association.

Common to all, as to experiment: SPR Biacore 8K, Ab on Protein A chip
(In general: Surface plasmon resonance follows binding to a sensor surface in real time, without labels.)

The target of test [1] is T1, His-tagged human PTK7 protein (human, UniProt Q13308 31-704).
T1 construct: Bought protein; also called hPTK7-His; not shown: His tag
T1 sequence: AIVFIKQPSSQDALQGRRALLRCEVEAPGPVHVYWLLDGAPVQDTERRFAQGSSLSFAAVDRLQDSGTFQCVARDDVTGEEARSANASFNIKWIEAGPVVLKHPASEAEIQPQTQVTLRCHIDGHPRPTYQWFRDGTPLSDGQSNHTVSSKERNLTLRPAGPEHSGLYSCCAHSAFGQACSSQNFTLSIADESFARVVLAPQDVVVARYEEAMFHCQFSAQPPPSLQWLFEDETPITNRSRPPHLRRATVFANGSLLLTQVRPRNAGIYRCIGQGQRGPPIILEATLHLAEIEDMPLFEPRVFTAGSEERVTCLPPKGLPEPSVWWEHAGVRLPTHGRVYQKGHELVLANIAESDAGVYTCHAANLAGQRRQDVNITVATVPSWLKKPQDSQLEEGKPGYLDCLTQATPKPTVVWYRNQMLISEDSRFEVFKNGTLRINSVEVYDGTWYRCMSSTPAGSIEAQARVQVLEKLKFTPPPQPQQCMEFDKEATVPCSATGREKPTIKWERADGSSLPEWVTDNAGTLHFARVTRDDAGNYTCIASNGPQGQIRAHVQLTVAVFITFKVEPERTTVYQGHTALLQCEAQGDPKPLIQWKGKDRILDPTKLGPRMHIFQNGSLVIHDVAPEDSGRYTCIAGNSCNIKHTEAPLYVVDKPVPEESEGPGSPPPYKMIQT

Test [2] concerns the target T2, His-tagged cynomolgus monkey PTK7 protein (cynomolgus monkey, UniProt A0A2K5VNI5 39-712).
T2 construct: Bought protein; also called cPTK7-His; ACRO Biosystems Cat# PT7-C52H3; not shown: His tag
T2 sequence: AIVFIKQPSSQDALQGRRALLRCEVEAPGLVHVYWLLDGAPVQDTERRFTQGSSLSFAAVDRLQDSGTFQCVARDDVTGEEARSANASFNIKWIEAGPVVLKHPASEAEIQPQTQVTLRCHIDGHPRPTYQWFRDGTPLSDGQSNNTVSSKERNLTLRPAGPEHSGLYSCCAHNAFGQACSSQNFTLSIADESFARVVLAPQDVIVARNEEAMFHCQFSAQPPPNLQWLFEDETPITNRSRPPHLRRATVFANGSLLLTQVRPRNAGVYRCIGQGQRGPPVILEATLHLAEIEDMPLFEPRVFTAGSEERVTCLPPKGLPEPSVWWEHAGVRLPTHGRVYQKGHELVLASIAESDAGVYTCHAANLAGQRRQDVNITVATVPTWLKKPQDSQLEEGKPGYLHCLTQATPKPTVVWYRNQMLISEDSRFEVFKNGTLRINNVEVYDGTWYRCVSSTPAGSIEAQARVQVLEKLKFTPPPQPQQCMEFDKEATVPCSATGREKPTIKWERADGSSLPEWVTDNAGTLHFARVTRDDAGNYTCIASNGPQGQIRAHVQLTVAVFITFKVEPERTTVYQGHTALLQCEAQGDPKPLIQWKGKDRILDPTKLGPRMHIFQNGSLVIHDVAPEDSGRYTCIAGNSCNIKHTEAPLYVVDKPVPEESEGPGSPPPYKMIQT

Test [3] has as its target T3, His-tagged human TROP2 protein (human, UniProt P09758 27-274).
T3 construct: Bought protein; also called hTROP2-His; ACRO Biosystems Cat# TR2-H5223; not shown: His tag
T3 sequence (looked up): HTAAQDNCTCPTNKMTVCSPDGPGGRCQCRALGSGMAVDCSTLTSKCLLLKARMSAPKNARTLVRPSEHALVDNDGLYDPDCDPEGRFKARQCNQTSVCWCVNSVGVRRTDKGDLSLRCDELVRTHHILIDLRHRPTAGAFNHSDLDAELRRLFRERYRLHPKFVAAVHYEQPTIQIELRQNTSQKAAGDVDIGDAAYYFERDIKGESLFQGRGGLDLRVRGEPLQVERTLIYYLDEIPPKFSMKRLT

Test [4] has as its target T4, His-tagged monkey TROP2 protein (cynomolgus monkey; Rhesus …, UniProt A0A5F8AGB8 27-274).
T4 construct: also called cTROP2-His; ACRO Biosystems Cat# TR2-R52H3
T4 sequence: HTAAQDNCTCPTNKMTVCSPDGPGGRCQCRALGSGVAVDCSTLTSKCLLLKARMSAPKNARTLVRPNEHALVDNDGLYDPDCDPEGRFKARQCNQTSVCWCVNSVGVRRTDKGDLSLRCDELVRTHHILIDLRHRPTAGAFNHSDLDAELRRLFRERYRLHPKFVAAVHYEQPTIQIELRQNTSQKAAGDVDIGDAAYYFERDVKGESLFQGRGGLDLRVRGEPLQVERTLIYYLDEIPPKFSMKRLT

B1: 3C4-18E9 (bispecific antibody, human IgG1, V domains shown)
VH 1: QVQLEQSRAEVKKPGESLRISCKGSGYSFTSYWISWVRQMPGKGLEWMGRIDPSDSYTNYNPSFQGHVTISADKSISTAYLQWSSLKASDTAMYYCARRDGSYFDFDYWGQGTLVTVSS
VH 2: QLQLQQSGPGLLKPSETLSLTCTVSGGSISSSYYFWGWIRQPPGKGLEWIGAIYYIGNTHYNPSLKSRVTISIDTSKNQFSLNLNSVTAADTAIYYCARYEDTWNWFDPWGQGTLVTVSS
VL: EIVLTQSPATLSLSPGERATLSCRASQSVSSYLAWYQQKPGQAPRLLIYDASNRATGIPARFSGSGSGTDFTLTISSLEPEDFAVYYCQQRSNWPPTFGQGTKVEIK
notes: which arm carries the knob is stated only for 3C4-6F7; also called anti-PTK7/TROP2 bispecific antibody 3C4-18E9
Take B1: the Kd in test [1] turned out to be 9.79 nM; in test [2], 13.1 nM; in test [3] it was 3.03 nM; in test [4], 3.16 nM. The koff amounted to 0.00125 s⁻¹ in test [1], 0.00167 s⁻¹ in test [2], 0.00107 s⁻¹ in test [3] and 0.00104 s⁻¹ in test [4]. Further, the kon in test [1] was 128000 M⁻¹ s⁻¹; in test [2], 127000 M⁻¹ s⁻¹; in test [3], 353000 M⁻¹ s⁻¹; in test [4], 329000 M⁻¹ s⁻¹.

The record behind these values is patent publication US20260250421A1 (BIOCYTOGEN PHARMACEUTICALS BEIJING, published 2026).
